Where two headings read alike, the source gives them in different places. Each block holds one binder with its values, some of them ahead of it.
Legend:
Assay in all cases: cell-based or functional assay
[1] = biological target: human IFNλ receptor on HEK-Blue IFN-λ cells (human)
human CD40 [2] = biological target: T1, human CD40 (human, UniProt P25942 21-277)
[3] = biological target: human IFNγ receptor on HEK-Blue IFN-γ cells (human)
[4] = biological target: human IFNγ receptor on HEK-Blue IFN-γ cells (human); remark: listed apart in the source
human CD40 [5] = biological target: T1, human CD40; remark: listed apart in the source
[6] = biological target: T2, human type I IFN receptor on HEK-Blue IFN-α/β cells (human, UniProt P17181 28-557; P48551 27-515)
T2 sequence (looked up) 1: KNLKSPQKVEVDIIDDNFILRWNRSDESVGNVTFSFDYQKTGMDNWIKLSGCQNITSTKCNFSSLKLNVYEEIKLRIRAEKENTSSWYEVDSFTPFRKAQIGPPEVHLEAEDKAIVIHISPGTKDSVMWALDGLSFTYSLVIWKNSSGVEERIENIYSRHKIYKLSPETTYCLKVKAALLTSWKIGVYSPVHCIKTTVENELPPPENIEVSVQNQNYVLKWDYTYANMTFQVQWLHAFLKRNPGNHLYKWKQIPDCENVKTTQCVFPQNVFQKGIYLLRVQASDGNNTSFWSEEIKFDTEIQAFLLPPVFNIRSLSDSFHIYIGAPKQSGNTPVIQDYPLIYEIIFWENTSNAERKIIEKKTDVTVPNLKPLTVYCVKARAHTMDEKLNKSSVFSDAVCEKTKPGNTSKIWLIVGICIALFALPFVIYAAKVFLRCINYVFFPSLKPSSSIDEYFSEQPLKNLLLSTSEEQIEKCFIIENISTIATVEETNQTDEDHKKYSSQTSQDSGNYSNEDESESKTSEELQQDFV
T2 sequence (looked up) 2: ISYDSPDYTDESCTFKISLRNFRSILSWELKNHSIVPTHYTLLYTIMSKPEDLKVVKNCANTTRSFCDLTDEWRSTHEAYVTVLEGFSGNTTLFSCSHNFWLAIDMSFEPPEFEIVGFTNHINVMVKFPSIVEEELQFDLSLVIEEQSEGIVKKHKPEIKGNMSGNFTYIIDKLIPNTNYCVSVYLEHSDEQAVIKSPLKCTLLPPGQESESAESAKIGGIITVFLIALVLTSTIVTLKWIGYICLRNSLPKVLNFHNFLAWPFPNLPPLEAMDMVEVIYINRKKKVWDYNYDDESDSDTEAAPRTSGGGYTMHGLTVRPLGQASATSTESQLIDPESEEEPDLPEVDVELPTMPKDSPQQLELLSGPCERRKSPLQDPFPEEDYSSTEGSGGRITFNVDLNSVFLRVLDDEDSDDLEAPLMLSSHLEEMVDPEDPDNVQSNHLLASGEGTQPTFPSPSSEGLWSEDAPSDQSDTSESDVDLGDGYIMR

human CD40 [7] = biological target: T1, human CD40; remark: listed apart in the source
[8] = biological target: human IFNγ receptor on HEK-Blue IFN-γ cells (human); remark: listed apart in the source

T1 sequence (P25942 21-277): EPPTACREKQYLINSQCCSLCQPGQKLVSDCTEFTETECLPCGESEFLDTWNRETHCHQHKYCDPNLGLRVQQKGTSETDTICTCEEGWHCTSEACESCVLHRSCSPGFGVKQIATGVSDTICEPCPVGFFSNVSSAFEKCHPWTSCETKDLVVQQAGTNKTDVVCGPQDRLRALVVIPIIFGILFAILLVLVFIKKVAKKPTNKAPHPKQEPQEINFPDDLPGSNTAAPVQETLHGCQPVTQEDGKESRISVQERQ

B1: IFA44 (antibody, human IgG2, kappa)
light: DIQMTQSPSSVSASVGDRVTITCRASQGIYSWLAWYQQKPGKAPNLLIYTASTLQSGVPSRFSGSGSGTDFTLTISSLQPEDFATYYCQQANIFPLTFGGGTKVEIKRTVAAPSVFIFPPSDEQLKSGTASVVCLLNNFYPREAKVQWKVDNALQSGNSQESVTEQDSKDSTYSLSSTLTLSKADYEKHKVYACEVTHQGLSSPVTKSFNRGECGGGGSGGGGSGGGGSGGGGSVPVARLHGALPDARGCHIAQFKSLSPQELQAFKRAKDALEESLLLKDCRCHSRLFPRTWDLRQLQVRERPMALEAELALTLKVLEATADTDPALVDVLDQPLHTLHHILSQFRACIQPQPTAGPRTRGRLHHWLYRLQEAPKKESPGCLEASVTFNLFRLLTRDLNCVASGDLCV
heavy: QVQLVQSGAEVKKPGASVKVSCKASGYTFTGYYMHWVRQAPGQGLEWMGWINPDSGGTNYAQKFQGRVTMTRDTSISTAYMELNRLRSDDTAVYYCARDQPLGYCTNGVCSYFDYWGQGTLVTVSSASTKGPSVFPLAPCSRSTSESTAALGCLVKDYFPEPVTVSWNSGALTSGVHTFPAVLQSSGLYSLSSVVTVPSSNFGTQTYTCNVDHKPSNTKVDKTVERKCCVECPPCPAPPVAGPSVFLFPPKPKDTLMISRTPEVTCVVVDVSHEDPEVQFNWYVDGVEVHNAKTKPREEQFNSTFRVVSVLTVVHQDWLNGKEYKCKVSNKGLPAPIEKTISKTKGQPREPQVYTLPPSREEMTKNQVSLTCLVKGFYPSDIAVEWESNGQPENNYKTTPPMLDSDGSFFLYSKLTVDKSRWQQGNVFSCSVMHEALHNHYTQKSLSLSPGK
IFNλ EC50 (HEK-Blue IFNλ reporter cells) [1]: 0.153 ng/mL
CD40 EC50 (HEK-Blue CD40L NFκB-SEAP reporter cells) (human CD40 [2]): 41.4 ng/mL

B2: IFA43 (antibody, human IgG2, kappa)
heavy: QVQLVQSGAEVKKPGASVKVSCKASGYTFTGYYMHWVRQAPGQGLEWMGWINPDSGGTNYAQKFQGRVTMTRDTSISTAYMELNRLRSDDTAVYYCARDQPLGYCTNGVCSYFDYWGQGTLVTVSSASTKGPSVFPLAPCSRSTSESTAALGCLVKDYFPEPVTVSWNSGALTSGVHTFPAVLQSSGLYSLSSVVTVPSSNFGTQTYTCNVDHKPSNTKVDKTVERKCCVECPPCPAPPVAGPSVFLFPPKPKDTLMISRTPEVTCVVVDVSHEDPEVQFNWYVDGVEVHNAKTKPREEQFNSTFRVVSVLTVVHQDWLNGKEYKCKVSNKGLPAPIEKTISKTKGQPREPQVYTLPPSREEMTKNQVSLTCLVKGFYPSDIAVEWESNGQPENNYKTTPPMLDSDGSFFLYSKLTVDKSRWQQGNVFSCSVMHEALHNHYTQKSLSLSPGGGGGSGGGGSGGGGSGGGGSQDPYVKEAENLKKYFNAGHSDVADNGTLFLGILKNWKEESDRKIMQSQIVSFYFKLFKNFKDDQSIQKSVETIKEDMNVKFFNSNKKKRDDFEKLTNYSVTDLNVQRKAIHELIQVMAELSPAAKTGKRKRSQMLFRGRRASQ
light: DIQMTQSPSSVSASVGDRVTITCRASQGIYSWLAWYQQKPGKAPNLLIYTASTLQSGVPSRFSGSGSGTDFTLTISSLQPEDFATYYCQQANIFPLTFGGGTKVEIKRTVAAPSVFIFPPSDEQLKSGTASVVCLLNNFYPREAKVQWKVDNALQSGNSQESVTEQDSKDSTYSLSSTLTLSKADYEKHKVYACEVTHQGLSSPVTKSFNRGEC
IFNγ EC50 (HEK-Blue IFNγ reporter cells) [3]: < 0.01 ng/mL
IFNγ EC50 (HEK-Blue IFNγ reporter cells) [4]: < 0.001 ng/mL
CD40 EC50 (HEK-Blue CD40L NFκB-SEAP reporter cells) (human CD40 [2]): 50.8 ng/mL

B3: IFA45 (antibody, human IgG2, kappa)
heavy: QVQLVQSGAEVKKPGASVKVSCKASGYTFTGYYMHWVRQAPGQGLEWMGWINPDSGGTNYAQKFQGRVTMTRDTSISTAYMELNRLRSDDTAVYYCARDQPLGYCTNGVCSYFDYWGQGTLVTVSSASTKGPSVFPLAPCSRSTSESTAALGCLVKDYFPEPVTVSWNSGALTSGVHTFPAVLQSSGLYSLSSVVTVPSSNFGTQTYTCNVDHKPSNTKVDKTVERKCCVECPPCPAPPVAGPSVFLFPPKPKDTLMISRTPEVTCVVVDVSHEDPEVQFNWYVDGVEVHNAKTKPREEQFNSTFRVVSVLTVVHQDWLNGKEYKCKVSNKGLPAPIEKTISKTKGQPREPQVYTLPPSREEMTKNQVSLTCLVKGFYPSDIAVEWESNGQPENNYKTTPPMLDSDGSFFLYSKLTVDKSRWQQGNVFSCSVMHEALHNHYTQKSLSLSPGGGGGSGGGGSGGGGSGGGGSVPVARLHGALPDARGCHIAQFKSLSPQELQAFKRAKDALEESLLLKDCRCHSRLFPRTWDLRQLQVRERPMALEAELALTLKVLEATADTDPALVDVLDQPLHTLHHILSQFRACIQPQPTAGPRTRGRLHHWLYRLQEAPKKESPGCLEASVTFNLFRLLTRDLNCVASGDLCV
light: DIQMTQSPSSVSASVGDRVTITCRASQGIYSWLAWYQQKPGKAPNLLIYTASTLQSGVPSRFSGSGSGTDFTLTISSLQPEDFATYYCQQANIFPLTFGGGTKVEIKRTVAAPSVFIFPPSDEQLKSGTASVVCLLNNFYPREAKVQWKVDNALQSGNSQESVTEQDSKDSTYSLSSTLTLSKADYEKHKVYACEVTHQGLSSPVTKSFNRGEC
IFNλ EC50 (HEK-Blue IFNλ reporter cells) [1]: < 0.001 ng/mL
CD40 EC50 (HEK-Blue CD40L NFκB-SEAP reporter cells) (human CD40 [2]): 25.8 ng/mL

B4: CP870,893 (antibody, human IgG2, kappa)
heavy: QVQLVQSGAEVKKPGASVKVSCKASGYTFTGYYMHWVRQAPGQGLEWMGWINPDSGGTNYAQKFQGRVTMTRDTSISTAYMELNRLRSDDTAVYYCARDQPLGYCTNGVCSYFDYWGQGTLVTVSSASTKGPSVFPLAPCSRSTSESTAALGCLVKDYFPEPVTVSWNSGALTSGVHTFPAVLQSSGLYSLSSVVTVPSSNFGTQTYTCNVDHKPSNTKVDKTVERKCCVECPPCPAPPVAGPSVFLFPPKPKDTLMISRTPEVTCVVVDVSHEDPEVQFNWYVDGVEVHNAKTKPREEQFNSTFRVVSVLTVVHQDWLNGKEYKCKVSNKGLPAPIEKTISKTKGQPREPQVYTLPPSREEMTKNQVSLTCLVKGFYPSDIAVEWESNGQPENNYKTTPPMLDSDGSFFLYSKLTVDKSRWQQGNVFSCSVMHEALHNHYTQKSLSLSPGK
light: DIQMTQSPSSVSASVGDRVTITCRASQGIYSWLAWYQQKPGKAPNLLIYTASTLQSGVPSRFSGSGSGTDFTLTISSLQPEDFATYYCQQANIFPLTFGGGTKVEIKRTVAAPSVFIFPPSDEQLKSGTASVVCLLNNFYPREAKVQWKVDNALQSGNSQESVTEQDSKDSTYSLSSTLTLSKADYEKHKVYACEVTHQGLSSPVTKSFNRGEC
CD40 EC50 (HEK-Blue CD40L NFκB-SEAP reporter cells) (human CD40 [5]): 30 to 80 ng/mL
CD40 EC50, mean (HEK-Blue CD40L NFκB-SEAP reporter cells) (human CD40 [5]): 48 ng/mL
CD40 EC50 in the experiment of FIG. 3 (HEK-Blue CD40L NFκB-SEAP reporter cells) (human CD40 [5]): 57 ng/mL

B7: 3G5 (antibody, human IgG2, kappa)
heavy: QVQLVESGGGVVQPGKSLRLSCAASGFTFSSNGIHWVRQAPGKGLEWVAVIWSDGSNKFYADSVKGRFTISRDNSKNTLYLQMNSLRAEDTAVYYCARASGSGSYYNFFDYWGQGTLVTVSSASTKGPSVFPLAPCSRSTSESTAALGCLVKDYFPEPVTVSWNSGALTSGVHTFPAVLQSSGLYSLSSVVTVPSSNFGTQTYTCNVDHKPSNTKVDKTVERKCCVECPPCPAPPVAGPSVFLFPPKPKDTLMISRTPEVTCVVVDVSHEDPEVQFNWYVDGVEVHNAKTKPREEQFNSTFRVVSVLTVVHQDWLNGKEYKCKVSNKGLPAPIEKTISKTKGQPREPQVYTLPPSREEMTKNQVSLTCLVKGFYPSDIAVEWESNGQPENNYKTTPPMLDSDGSFFLYSKLTVDKSRWQQGNVFSCSVMHEALHNHYTQKSLSLSPG
light: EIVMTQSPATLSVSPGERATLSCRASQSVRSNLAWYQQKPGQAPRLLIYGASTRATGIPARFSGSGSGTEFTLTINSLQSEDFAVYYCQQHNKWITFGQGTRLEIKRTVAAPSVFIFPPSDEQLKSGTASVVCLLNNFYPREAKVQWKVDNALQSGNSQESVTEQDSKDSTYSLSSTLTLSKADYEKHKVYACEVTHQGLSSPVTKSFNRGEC
CD40 EC50, mean (HEK-Blue CD40L NFκB-SEAP reporter cells) (human CD40 [5]): 9.3 ng/mL

B9: IFA42 (antibody, human IgG2, kappa)
light: DIQMTQSPSSVSASVGDRVTITCRASQGIYSWLAWYQQKPGKAPNLLIYTASTLQSGVPSRFSGSGSGTDFTLTISSLQPEDFATYYCQQANIFPLTFGGGTKVEIKRTVAAPSVFIFPPSDEQLKSGTASVVCLLNNFYPREAKVQWKVDNALQSGNSQESVTEQDSKDSTYSLSSTLTLSKADYEKHKVYACEVTHQGLSSPVTKSFNRGECGGGGSGGGGSGGGGSGGGGSQDPYVKEAENLKKYFNAGHSDVADNGTLFLGILKNWKEESDRKIMQSQIVSFYFKLFKNFKDDQSIQKSVETIKEDMNVKFFNSNKKKRDDFEKLTNYSVTDLNVQRKAIHELIQVMAELSPAAKTGKRKRSQMLFRGRRASQ
heavy: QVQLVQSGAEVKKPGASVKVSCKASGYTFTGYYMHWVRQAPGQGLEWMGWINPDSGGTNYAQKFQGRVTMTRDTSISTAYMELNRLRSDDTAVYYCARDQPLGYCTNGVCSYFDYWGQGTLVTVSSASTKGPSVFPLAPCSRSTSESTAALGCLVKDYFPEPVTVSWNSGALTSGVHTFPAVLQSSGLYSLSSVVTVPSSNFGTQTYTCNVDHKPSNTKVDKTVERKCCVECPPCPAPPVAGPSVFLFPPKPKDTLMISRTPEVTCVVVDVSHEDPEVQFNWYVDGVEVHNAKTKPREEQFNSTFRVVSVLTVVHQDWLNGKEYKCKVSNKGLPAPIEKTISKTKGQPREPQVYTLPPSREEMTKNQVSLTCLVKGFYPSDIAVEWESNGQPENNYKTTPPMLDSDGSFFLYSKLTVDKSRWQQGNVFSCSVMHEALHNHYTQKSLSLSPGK
IFNγ EC50 (HEK-Blue IFNγ reporter cells) [4]: 15.4 ng/mL
CD40 EC50 (HEK-Blue CD40L NFκB-SEAP reporter cells) (human CD40 [2]): 65.6 ng/mL

Continued, values first:

IFNβ EC50 (HEK-Blue IFN-α/β SEAP reporter cells) [6]: 1.27 ng/mL
CD40 EC50 (HEK-Blue CD40L NFκB-SEAP reporter cells) (human CD40 [7]): 37.3 ng/mL
B5: IFA108 (antibody, human IgG2, kappa)
heavy: QVQLVESGGGVVQPGKSLRLSCAASGFTFSSNGIHWVRQAPGKGLEWVAVIWSDGSNKFYADSVKGRFTISRDNSKNTLYLQMNSLRAEDTAVYYCARASGSGSYYNFFDYWGQGTLVTVSSASTKGPSVFPLAPCSRSTSESTAALGCLVKDYFPEPVTVSWNSGALTSGVHTFPAVLQSSGLYSLSSVVTVPSSNFGTQTYTCNVDHKPSNTKVDKTVERKCCVECPPCPAPPVAGPSVFLFPPKPKDTLMISRTPEVTCVVVDVSHEDPEVQFNWYVDGVEVHNAKTKPREEQFNSTFRVVSVLTVVHQDWLNGKEYKCKVSNKGLPAPIEKTISKTKGQPREPQVYTLPPSREEMTKNQVSLTCLVKGFYPSDIAVEWESNGQPENNYKTTPPMLDSDGSFFLYSKLTVDKSRWQQGNVFSCSVMHEALHNHYTQKSLSLSPGAEAAAKEAAAKASYNLLGFLQRSSNFQCQKLLWQLNGRLEYCLKDRMNFDIPEEIKQLQQFQKEDAALTIYEMLQNIFAIFRQDSSSTGWNETIVENLLANVYHQINHLKTVLEEKLEKEDFTRGKLMSSLHLKRYYGRILHYLKAKEYSHCAWTIVRVEILRNFYFINRLTGYLRN
light: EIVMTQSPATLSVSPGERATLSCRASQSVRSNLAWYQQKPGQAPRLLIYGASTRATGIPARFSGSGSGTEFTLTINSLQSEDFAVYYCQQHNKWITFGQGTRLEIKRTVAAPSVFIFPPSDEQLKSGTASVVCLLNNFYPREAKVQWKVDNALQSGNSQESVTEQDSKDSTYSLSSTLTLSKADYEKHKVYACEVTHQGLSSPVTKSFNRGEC

IFNβ EC50 (HEK-Blue IFN-α/β SEAP reporter cells) [6]: 0.45 ng/mL
CD40 EC50 (HEK-Blue CD40L NFκB-SEAP reporter cells) (human CD40 [7]): 30 ng/mL
B6: IFA109 (antibody, human IgG2, kappa)
heavy: QVQLVESGGGVVQPGKSLRLSCAASGFTFSSNGIHWVRQAPGKGLEWVAVIWSDGSNKFYADSVKGRFTISRDNSKNTLYLQMNSLRAEDTAVYYCARASGSGSYYNFFDYWGQGTLVTVSSASTKGPSVFPLAPCSRSTSESTAALGCLVKDYFPEPVTVSWNSGALTSGVHTFPAVLQSSGLYSLSSVVTVPSSNFGTQTYTCNVDHKPSNTKVDKTVERKCCVECPPCPAPPVAGPSVFLFPPKPKDTLMISRTPEVTCVVVDVSHEDPEVQFNWYVDGVEVHNAKTKPREEQFNSTFRVVSVLTVVHQDWLNGKEYKCKVSNKGLPAPIEKTISKTKGQPREPQVYTLPPSREEMTKNQVSLTCLVKGFYPSDIAVEWESNGQPENNYKTTPPMLDSDGSFFLYSKLTVDKSRWQQGNVFSCSVMHEALHNHYTQKSLSLSPGAEAAAKEAAAKASYNLLGFLQRSSNFQSQKLLWQLNGRLEYCLKDRMNFDIPEEIKQLQQFQKEDAALTIYEMLQNIFAIFRQDSSSTGWNETIVENLLANVYHQINHLKTVLEEKLEKEDFTRGKLMSSLHLKRYYGRILHYLKAKEYSHCAWTIVRVEILRNFYFINRLTGYLRN
light: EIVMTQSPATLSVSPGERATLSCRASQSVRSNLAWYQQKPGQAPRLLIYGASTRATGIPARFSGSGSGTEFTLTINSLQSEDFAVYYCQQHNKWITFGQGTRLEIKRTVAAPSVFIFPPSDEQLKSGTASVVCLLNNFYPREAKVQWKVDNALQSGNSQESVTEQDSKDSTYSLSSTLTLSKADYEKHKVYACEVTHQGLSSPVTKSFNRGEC

IFNγ EC50 (HEK-Blue IFNγ reporter cells) [8]: 0.142 ng/mL
CD40 EC50 (HEK-Blue CD40L NFκB-SEAP reporter cells) (human CD40 [7]): 8.8 ng/mL
B8: IFA125 (antibody, human IgG2, kappa)
heavy: QVQLVESGGGVVQPGKSLRLSCAASGFTFSSNGIHWVRQAPGKGLEWVAVIWSDGSNKFYADSVKGRFTISRDNSKNTLYLQMNSLRAEDTAVYYCARASGSGSYYNFFDYWGQGTLVTVSSASTKGPSVFPLAPCSRSTSESTAALGCLVKDYFPEPVTVSWNSGALTSGVHTFPAVLQSSGLYSLSSVVTVPSSNFGTQTYTCNVDHKPSNTKVDKTVERKCCVECPPCPAPPVAGPSVFLFPPKPKDTLMISRTPEVTCVVVDVSHEDPEVQFNWYVDGVEVHNAKTKPREEQFNSTFRVVSVLTVVHQDWLNGKEYKCKVSNKGLPAPIEKTISKTKGQPREPQVYTLPPSREEMTKNQVSLTCLVKGFYPSDIAVEWESNGQPENNYKTTPPMLDSDGSFFLYSKLTVDKSRWQQGNVFSCSVMHEALHNHYTQKSLSLSPGGGGGSGGGGSGGGGSGGGGSQDPYVKEAENLKKYFNAGHSDVADNGTLFLGILKNWKEESDRKIMQSQIVSFYFKLFKNFKDDQSIQKSVETIKEDMNVKFFNSNKKKRDDFEKLTNYSVTDLNVQRKAIHELIQVMAELSPAAKTGKRKRSQMLFRGRRASQ
light: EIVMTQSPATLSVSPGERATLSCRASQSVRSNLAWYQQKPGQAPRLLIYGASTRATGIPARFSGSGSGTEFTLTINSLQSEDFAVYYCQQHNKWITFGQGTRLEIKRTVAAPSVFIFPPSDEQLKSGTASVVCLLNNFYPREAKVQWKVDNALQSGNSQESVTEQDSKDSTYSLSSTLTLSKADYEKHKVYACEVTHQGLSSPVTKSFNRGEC

Reference: patent US20250320302A1 (EVOTEC INTERNATIONAL, published 2025)
